Results reported in the domain aggregation screens of Martell et al. (2025).

assay: soluble fraction after stress (log2 fold change); higher = more stays soluble; pooled small domains, quantitative proteomics; conditions: stress: 50 degC
Outline: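 Pooled custom libraries of small protein domains were each held under stress at 50°C. The read-out, high-throughput quantitative proteomics, tracked how much of each protein stayed soluble. This is reported as a base-two log fold change used to indicate aggregation propensity. Higher values mean more protein remains in solution.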

| Sequence | soluble fraction (log2) |
| --- | --- |
| HMNPSVSSDERILLQKALGILSAEQKQIVMLHAVAGIKHREIAKLLDMPIATVLSKYSRAVNKLRHAMEA | -0.423 |
| HMEEVIEVEGKITAVLPSTMFRAELENGHQVLAHISGKLRKHFIKITVGDIVKMEMSTQDLQKARIV | -0.307 |
| HMAGSGLPVPRFVSLADDRVNARAGPGFRFPINWVYLRKGFPVEVVDEFGPWRRIRDIDGVAAWIHLSMLS | -0.85 |
| HMKRLPFSFAKRFGVVVEDGEPPIVHHRDGASAETLLEVRRRLGQVFTLQRHDAEAFERLLTQAYQR | -0.383 |
| HMVQLAEGERYRRIQEANDFINRQQWPGKAAMGRLKDTEKAQYNLWLDYLDALEAVDTSSAPKINWPVPPE | 0.167 |
| HMDLEIENYDLREILNLFKLDYNFDNVDLKRAQKIALKTHPDKSNLPKEYFMFFMKAFQIVQQIYYYRY | -0.47 |
| HMNETSRTRALNILGLKATATQEDIKKAYRSLAKEYHPDKLVGVSEGVKKISEEKFREINEAYEYLI | 0.384 |
| HMKQLQIPYSFAKRHGVLLRYEGDQAFIVRRDNTSMLALQEARRLLGHPAHYLLYSEQEFNQLLSASFA | -2.7 |
| HMYQRLPFSFANRYKMVLESQHPERAPILYYVEPLKSAAIIEVSRVVKNGFTPQAITLDEFDKKLTDAYQR | -0.908 |
| HMNNDIDRVFAELTVLSQKKGYLVFDDIEKGTEDLSVNEVDWLTNRLLTSGVEIFDDVPDTIK | -0.205 |
| HMHNLYAPTQKEVDHARRVVEAAEAAAREGLGVVSLNGKMVDGPVIDRARLVLSRAELSGIRE | 0.072 |
| HMGTGQTNEKLAVLTNIQKTQEQILLTLGAKNPLVNLKQYRETLAKILSLSGYKNSNEFFLDPM | -0.0851 |
| HMITPKQTAETLGIATSTLRRWASEFEPFLSLRTGVKRTYTTDDITTLKRVKDLFAQGLKTEQVREAL | -0.161 |
| HMRHEDLSPAQKAAALVVAVGSENAAQVLRHLSEEEVEILAGEVARLGEVDPDVVDSVMREVYEQMMGH | -0.423 |
| HMNIIATHTVPAIEQKIRLQEYAISIFPQINSRSALKKAIAKKLVLLDGERASTADWIQPGQKIELLEDK | -0.337 |
| HMGRKRLADYGLNDTEQKIVRKIADGLSNREIAQALYLSEGTVKNYITDILGKLELRDRTQIAIFYLREIG | -0.0293 |
| HMIAVLEEGSHFRAVNDVTGKPFGPEMVIKNGQVTAVGKTISTKPKNLLGKKEGTKFVISGKQYVIKDI | -0.00494 |
| HMTSPELIELGERIRKRRQEMNLSQEALAEKAGISINTVSRVEGGQTAMSIEIFRKMIEILETDANGL | -0.212 |
| HMSRSKLNRLDKIKKMLIAQTGISIKEFSASLNVSEITIRRDLNLLEEQGFIRLVNGVAIYRM | -1.55 |
| HMTDEEKENLREKMLEAGFPLLKQYGMTHTSVAKITQAAGIAVGTFYSFWKNKEAYMADLIGYHRR | -0.818 |
| HMAPRIVTIQIPVDKIRDVIGPGGKVIRSIIERTGVKIDVEDDGRVNVASADGDSAQRAIAIIQELTAT | 0.0444 |
| HMESYTGLAVTEDDDGWSNVRSGNSTSYSILFKIYAGEKFNILSNDGKWSYIDFNGRKGYIHNSIIRKY | -3.87 |
| HMLKDININVTGLDQISNAKLINNLNLLKMNNLFFLDEKKIKKILNSNNLIEKFFIFKKYPSTLDIKVYKT | -0.0369 |
| HMAPELRSDAQMRRLWALAKENGLDEVGFRAFISDATGREVESTKSLTATEAHRLIEELEAP | -0.388 |
| HMDAKIEYTMSDLIENRLINSDDASMRREKLSEILKIGYGNGKKTLHKLNSFGITREEFEEAMKEVNSH | 0.0697 |
| HMFPSLSPEEQAVVDVLQRNNDLQINMLSVQSGLTISRLTALLFQLEMKGVIKPLAGGMYHLL | 0.0206 |
| HMPSTVRVPDVAETSLSEAKKTIEESGLEVGAIHKVNNDTVKKNHVIKTSPTIGSAKKEGSAIDIYVSKG | -0.0128 |
| HMDKQGGWLTMAEAAEKLGVTHHVIRRLIKEKILPAEQVMRHAPHQIRIVDLESDAVAEALRHR | -0.215 |
| HMDYIGIQAAKEAALKDADISSEQAVFTMAELDNKNNIFYYQIMFTENGTEYRYDIDALTGVIIEKNHFF | -1.96 |
| HMVNPHPVYRSWGLLYVEARDGDSLESIAKEFGFSVKKLAKYNEVPKDYPLEAGDIVYLEKKKK | -1.59 |
